From patent publication US20120240246A1, “Variant Calpastatins and Variant Calpains for Modulating the Activity or Stability of Calpain” (St. Jude Children's Research Hospital, priority 2009, published 2012)

Assays:
[1] = target: protease core from µ-calpain (µI-II) (UniProt P97571); experiment: cell-based or functional assay
m-calpain [2] = target: T1, m-calpain (Rattus norvegicus, UniProt Q07009); experiment: Calpastatin inhibition assay, hydrolysis by m-calpain; type: biochemical; details: for IC50 values toward m-calpain (in words): derived from initial rate analysis
T1 construct: diminishing activity >1,000-fold compared to full-length m-calpain; His6 (C); made in house; host or cells: E. coli
T1 sequence (Q07009 1-700): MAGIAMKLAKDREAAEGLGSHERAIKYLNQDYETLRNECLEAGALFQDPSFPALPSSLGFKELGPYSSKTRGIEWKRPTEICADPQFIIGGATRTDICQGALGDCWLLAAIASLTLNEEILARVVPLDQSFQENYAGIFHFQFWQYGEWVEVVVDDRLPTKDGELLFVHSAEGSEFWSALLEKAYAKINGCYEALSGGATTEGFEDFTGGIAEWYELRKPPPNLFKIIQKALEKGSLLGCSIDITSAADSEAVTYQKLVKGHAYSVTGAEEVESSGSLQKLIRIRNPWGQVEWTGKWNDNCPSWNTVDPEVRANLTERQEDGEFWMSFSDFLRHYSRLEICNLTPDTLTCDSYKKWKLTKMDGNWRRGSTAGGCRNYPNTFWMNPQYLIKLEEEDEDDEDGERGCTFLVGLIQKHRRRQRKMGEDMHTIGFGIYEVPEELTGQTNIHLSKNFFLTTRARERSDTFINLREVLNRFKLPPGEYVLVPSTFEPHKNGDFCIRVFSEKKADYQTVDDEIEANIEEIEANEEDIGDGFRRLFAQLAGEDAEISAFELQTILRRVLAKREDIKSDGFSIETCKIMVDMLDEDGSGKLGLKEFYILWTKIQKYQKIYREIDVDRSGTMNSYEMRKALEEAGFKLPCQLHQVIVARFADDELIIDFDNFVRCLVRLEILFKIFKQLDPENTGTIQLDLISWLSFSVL
T1 sequence (Q64537 87-270 partner limits assumed): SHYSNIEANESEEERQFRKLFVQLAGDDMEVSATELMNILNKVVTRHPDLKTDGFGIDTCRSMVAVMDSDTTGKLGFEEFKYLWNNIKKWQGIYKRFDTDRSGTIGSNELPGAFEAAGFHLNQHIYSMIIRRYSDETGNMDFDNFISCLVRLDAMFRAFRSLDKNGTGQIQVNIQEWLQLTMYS
Experimental: (§1) Calpastatin Inhibition Assays. Hydrolysis assays by m-calpain (1 nM or 20 nM), m-calpain mutants (1 nM) and μI-II (1.25-2.5 μM) were performed in 100-μl volumes containing 50 mM HEPES (pH 7.5), 200 mM NaCl, 1 mM DTT, various concentrations of substrate (0-1.5mM SLY-MCA (Sigma) or 0-50 μg/ml BODIPY-casein (Invitrogen)) and increasing inhibitor concentrations: 0-50 nM wild-type or mutant full-length calpastatin, fragments AB and BC, 0-20 μM peptide B1 for m-calpain, and 0-750 μM peptide B1 for μI-II. Duplicates or triplicates were performed for each condition in 96-well plates using a Molecular Devices microplate reader.

[3] = target: T2, μI-II (protease core from μ-calpain) (Rattus norvegicus, UniProt P97571); experiment: Calpastatin inhibition assay, hydrolysis by μI-II; type: biochemical; details: mean ±s.e.m.
T2 construct: the protease core from μ-calpain (μI-II) were expressed in E. coli; made in house; host or cells: E. coli
Experimental: as §1

[4] = target: calpastatin repeat 1 K176/E177Δ mutant (UniProt P27321)
[5] = target: calpastatin repeat 1 K176Δ mutant (UniProt P27321)
[6] = target: calpastatin repeat 1 E177Δ mutant (UniProt P27321)
[7] = target: m-calpain (catalytically active heterodimer used in hydrolysis and autolysis assays) (rat), Q07009; experiment: cell-based or functional assay
m-calpain [8] = experiment: Hydrolysis activity of m-calpain mutants at the DI-II-DIII interface; type: biochemical, rat; details: Ala substitution in DIII of 80 kDa subunit
Experimental: as §1

[9] = target: protease core from µ-calpain (µI-II) (UniProt P97571 29-356); experiment: cell-based or functional assay
protease core from µ-calpain (µI-II) (UniProt P97571 29-356), sequence (P97571 29-356 limits assumed): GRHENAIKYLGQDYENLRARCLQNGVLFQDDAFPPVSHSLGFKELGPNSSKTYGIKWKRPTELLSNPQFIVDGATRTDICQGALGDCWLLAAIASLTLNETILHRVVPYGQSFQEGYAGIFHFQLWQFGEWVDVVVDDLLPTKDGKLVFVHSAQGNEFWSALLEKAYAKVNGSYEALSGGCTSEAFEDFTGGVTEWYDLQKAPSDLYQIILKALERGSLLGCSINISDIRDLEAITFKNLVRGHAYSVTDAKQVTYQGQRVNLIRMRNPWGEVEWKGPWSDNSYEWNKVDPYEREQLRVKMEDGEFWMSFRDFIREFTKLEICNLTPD

protease core from µ-calpain (µI-II) (UniProt P97571), sequence (P97571 29-356 limits assumed): as above
T2 sequence (P97571 55-354 limits assumed): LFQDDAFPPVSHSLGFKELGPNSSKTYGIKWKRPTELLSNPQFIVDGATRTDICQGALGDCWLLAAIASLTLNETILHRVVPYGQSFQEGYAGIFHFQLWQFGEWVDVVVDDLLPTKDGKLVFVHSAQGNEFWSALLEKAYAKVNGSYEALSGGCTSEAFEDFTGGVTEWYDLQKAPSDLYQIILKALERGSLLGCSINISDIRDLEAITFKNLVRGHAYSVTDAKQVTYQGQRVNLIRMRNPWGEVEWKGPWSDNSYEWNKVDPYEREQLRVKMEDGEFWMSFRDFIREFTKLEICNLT
calpastatin repeat 1 K176/E177Δ mutant, sequence (P27321 whole entry, looked up, stated change not applied): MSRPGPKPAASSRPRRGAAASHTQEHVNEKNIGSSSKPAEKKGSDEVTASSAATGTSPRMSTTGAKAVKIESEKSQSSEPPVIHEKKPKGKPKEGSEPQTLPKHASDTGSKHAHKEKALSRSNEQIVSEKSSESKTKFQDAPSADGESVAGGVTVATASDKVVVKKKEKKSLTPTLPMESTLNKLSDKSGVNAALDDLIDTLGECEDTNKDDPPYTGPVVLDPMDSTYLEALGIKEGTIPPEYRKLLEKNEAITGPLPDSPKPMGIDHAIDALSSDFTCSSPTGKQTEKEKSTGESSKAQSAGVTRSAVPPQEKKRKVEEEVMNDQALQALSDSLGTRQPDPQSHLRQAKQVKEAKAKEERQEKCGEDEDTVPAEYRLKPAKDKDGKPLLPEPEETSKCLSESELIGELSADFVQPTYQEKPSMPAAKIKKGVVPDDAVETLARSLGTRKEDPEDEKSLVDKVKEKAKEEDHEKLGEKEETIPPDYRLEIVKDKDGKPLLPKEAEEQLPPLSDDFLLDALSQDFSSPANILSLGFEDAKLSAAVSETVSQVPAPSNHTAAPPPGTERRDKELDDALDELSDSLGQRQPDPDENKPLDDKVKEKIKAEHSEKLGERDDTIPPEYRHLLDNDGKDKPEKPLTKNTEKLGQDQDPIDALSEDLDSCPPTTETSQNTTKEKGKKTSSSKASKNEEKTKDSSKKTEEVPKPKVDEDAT
calpastatin repeat 1 K176Δ mutant, sequence (P27321 whole entry, looked up, stated change not applied): as above
calpastatin repeat 1 E177Δ mutant, sequence (P27321 whole entry, looked up, stated change not applied): as above

## calpastatin repeat 1 fragment BC (57 residues, Asp163-Thr219) (from UniProt P27321 163-219) (peptide)
[1]
  IC50 of inhibition of µI-II activity: 122 µM

## AB: 57-residue calpastatin repeat 1 fragment with regions A and B, ending at Lys190 (SKTKFQDAPSADGESVAGGVTVATASDKVVVKKKEKKSLTPTLPMESTLNKLSDKSG)
m-calpain [2]
  IC50 values toward m-calpain (in words): low nanomolar
[3]
  IC50: 80.5 ± 10.2 µM

## calpastatin repeat 1 fragment AB (57 residues, ending at Lys190) (from UniProt P27321 134-190) (peptide)
[1]
  IC50 of inhibition of µI-II activity: 80.5 µM

## rat calpastatin inhibitory repeat 1, short construct Ala134-Thr219 (86 residues) (from UniProt P27321 134-219)
[1]
  IC50 of inhibition of µI-II activity: 155 µM

## m-calpain (catalytically active heterodimer used in hydrolysis and autolysis assays)
[4]
  autolysis / proteolysis of the complex (SDS-PAGE): all mutants succumbed to proteolysis within the kink
[5]
  autolysis / proteolysis of the complex (SDS-PAGE): all mutants succumbed to proteolysis within the kink
[6]
  autolysis / proteolysis of the complex (SDS-PAGE): all mutants succumbed to proteolysis within the kink

## Ac-ALGIKEGTIPPEYRKLLE-NH2 [peptide B1, Ac-ALGIKEGTIPPEYRKLLE-NH2]
m-calpain [2]; mean ±s.e.m.
  IC50: 0.41 ± 0.08 µM

B1: Peptide B1 Ac-…-NH2 (peptide)
peptide: Ac-ALGIKEGTIPPEYRKLLE-NH2
[7]
  IC50 of inhibition of substrate hydrolysis by m-calpain: 0.41 µM

B2: R417A: rat m-calpain with R417A substitution in DIII of the 80 kDa subunit (protein, UniProt Q07009 20-700; Q64537 1-270, looked up, variant R417A)
Calpain-2 catalytic subunit: SHERAIKYLNQDYETLRNECLEAGALFQDPSFPALPSSLGFKELGPYSSKTRGIEWKRPTEICADPQFIIGGATRTDICQGALGDCWLLAAIASLTLNEEILARVVPLDQSFQENYAGIFHFQFWQYGEWVEVVVDDRLPTKDGELLFVHSAEGSEFWSALLEKAYAKINGCYEALSGGATTEGFEDFTGGIAEWYELRKPPPNLFKIIQKALEKGSLLGCSIDITSAADSEAVTYQKLVKGHAYSVTGAEEVESSGSLQKLIRIRNPWGQVEWTGKWNDNCPSWNTVDPEVRANLTERQEDGEFWMSFSDFLRHYSRLEICNLTPDTLTCDSYKKWKLTKMDGNWRRGSTAGGCRNYPNTFWMNPQYLIKLEEEDEDDEDGERGCTFLVGLIQKHRARQRKMGEDMHTIGFGIYEVPEELTGQTNIHLSKNFFLTTRARERSDTFINLREVLNRFKLPPGEYVLVPSTFEPHKNGDFCIRVFSEKKADYQTVDDEIEANIEEIEANEEDIGDGFRRLFAQLAGEDAEISAFELQTILRRVLAKREDIKSDGFSIETCKIMVDMLDEDGSGKLGLKEFYILWTKIQKYQKIYREIDVDRSGTMNSYEMRKALEEAGFKLPCQLHQVIVARFADDELIIDFDNFVRCLVRLEILFKIFKQLDPENTGTIQLDLISWLSFSVL
Calpain small subunit 1: MFLVNSFLKGGGGGGGGGGLGGGLGNVLGGLISGAAGGGGGGGGGGGMGLGGGGGGGGTAMRILGGVISAISEAAAQYNPEPPPPRSHYSNIEANESEEERQFRKLFVQLAGDDMEVSATELMNILNKVVTRHPDLKTDGFGIDTCRSMVAVMDSDTTGKLGFEEFKYLWNNIKKWQGIYKRFDTDRSGTIGSNELPGAFEAAGFHLNQHIYSMIIRRYSDETGNMDFDNFISCLVRLDAMFRAFRSLDKNGTGQIQVNIQEWLQLTMYS
m-calpain [8]
  m-calpain activity after substitution (fraction of wild type): one-half

B3: R469A: rat m-calpain with R469A substitution in DIII of the 80 kDa subunit (protein, UniProt Q07009 20-700; Q64537 1-270, looked up, variant R469A)
Calpain-2 catalytic subunit: SHERAIKYLNQDYETLRNECLEAGALFQDPSFPALPSSLGFKELGPYSSKTRGIEWKRPTEICADPQFIIGGATRTDICQGALGDCWLLAAIASLTLNEEILARVVPLDQSFQENYAGIFHFQFWQYGEWVEVVVDDRLPTKDGELLFVHSAEGSEFWSALLEKAYAKINGCYEALSGGATTEGFEDFTGGIAEWYELRKPPPNLFKIIQKALEKGSLLGCSIDITSAADSEAVTYQKLVKGHAYSVTGAEEVESSGSLQKLIRIRNPWGQVEWTGKWNDNCPSWNTVDPEVRANLTERQEDGEFWMSFSDFLRHYSRLEICNLTPDTLTCDSYKKWKLTKMDGNWRRGSTAGGCRNYPNTFWMNPQYLIKLEEEDEDDEDGERGCTFLVGLIQKHRRRQRKMGEDMHTIGFGIYEVPEELTGQTNIHLSKNFFLTTRARERSDTFINLAEVLNRFKLPPGEYVLVPSTFEPHKNGDFCIRVFSEKKADYQTVDDEIEANIEEIEANEEDIGDGFRRLFAQLAGEDAEISAFELQTILRRVLAKREDIKSDGFSIETCKIMVDMLDEDGSGKLGLKEFYILWTKIQKYQKIYREIDVDRSGTMNSYEMRKALEEAGFKLPCQLHQVIVARFADDELIIDFDNFVRCLVRLEILFKIFKQLDPENTGTIQLDLISWLSFSVL
Calpain small subunit 1: MFLVNSFLKGGGGGGGGGGLGGGLGNVLGGLISGAAGGGGGGGGGGGMGLGGGGGGGGTAMRILGGVISAISEAAAQYNPEPPPPRSHYSNIEANESEEERQFRKLFVQLAGDDMEVSATELMNILNKVVTRHPDLKTDGFGIDTCRSMVAVMDSDTTGKLGFEEFKYLWNNIKKWQGIYKRFDTDRSGTIGSNELPGAFEAAGFHLNQHIYSMIIRRYSDETGNMDFDNFISCLVRLDAMFRAFRSLDKNGTGQIQVNIQEWLQLTMYS
m-calpain [8]
  Ca2+ requirement: doubled
  decrease in m-calpain activity: > 60 fold

B4: R420A: rat m-calpain with R420A substitution in DIII of the 80 kDa subunit (protein, UniProt Q07009 20-700; Q64537 1-270, looked up, variant R420A)
Calpain-2 catalytic subunit: SHERAIKYLNQDYETLRNECLEAGALFQDPSFPALPSSLGFKELGPYSSKTRGIEWKRPTEICADPQFIIGGATRTDICQGALGDCWLLAAIASLTLNEEILARVVPLDQSFQENYAGIFHFQFWQYGEWVEVVVDDRLPTKDGELLFVHSAEGSEFWSALLEKAYAKINGCYEALSGGATTEGFEDFTGGIAEWYELRKPPPNLFKIIQKALEKGSLLGCSIDITSAADSEAVTYQKLVKGHAYSVTGAEEVESSGSLQKLIRIRNPWGQVEWTGKWNDNCPSWNTVDPEVRANLTERQEDGEFWMSFSDFLRHYSRLEICNLTPDTLTCDSYKKWKLTKMDGNWRRGSTAGGCRNYPNTFWMNPQYLIKLEEEDEDDEDGERGCTFLVGLIQKHRRRQAKMGEDMHTIGFGIYEVPEELTGQTNIHLSKNFFLTTRARERSDTFINLREVLNRFKLPPGEYVLVPSTFEPHKNGDFCIRVFSEKKADYQTVDDEIEANIEEIEANEEDIGDGFRRLFAQLAGEDAEISAFELQTILRRVLAKREDIKSDGFSIETCKIMVDMLDEDGSGKLGLKEFYILWTKIQKYQKIYREIDVDRSGTMNSYEMRKALEEAGFKLPCQLHQVIVARFADDELIIDFDNFVRCLVRLEILFKIFKQLDPENTGTIQLDLISWLSFSVL
Calpain small subunit 1: MFLVNSFLKGGGGGGGGGGLGGGLGNVLGGLISGAAGGGGGGGGGGGMGLGGGGGGGGTAMRILGGVISAISEAAAQYNPEPPPPRSHYSNIEANESEEERQFRKLFVQLAGDDMEVSATELMNILNKVVTRHPDLKTDGFGIDTCRSMVAVMDSDTTGKLGFEEFKYLWNNIKKWQGIYKRFDTDRSGTIGSNELPGAFEAAGFHLNQHIYSMIIRRYSDETGNMDFDNFISCLVRLDAMFRAFRSLDKNGTGQIQVNIQEWLQLTMYS
m-calpain [8]
  Ca2+ requirement: doubled
  m-calpain activity after substitution (fraction of wild type): one-quarter

B5: Peptide B1 Ac-ALGIKEGTIPPEYRKLLE-NH2 (peptide)
peptide: Ac-ALGIKEGTIPPEYRKLLE-NH2
[9]
  IC50 of inhibition of µI-II activity: 24.5 µM

B6: repeat 1: 86-residue rat calpastatin inhibitory repeat 1 (residues 134-219), expressed in E. coli (protein, UniProt P27321 134-219, looked up, fragment)
chain: SKTKFQDAPSADGESVAGGVTVATASDKVVVKKKEKKSLTPTLPMESTLNKLSDKSGVNAALDDLIDTLGECEDTNKDDPPYTGPV
modifications: inhibitory repeat 1
m-calpain [2]
  IC50 values toward m-calpain (in words): low nanomolar
[3]
  IC50: 155 ± 16.3 µM
